According to publication PMC11303214:

Columns and labels:
Experiment in all cases: SEC; Superdex200 column, PBS buffer pH 7.4, after nickel affinity chromatography
[1] = biological target: SsA1 (R-1b variant with the V157C-N183C disulfide) (respiratory syncytial virus (RSV) | bacteriophage T4) (UniProt P03420)
[2] = biological target: SsB1 (R-1b variant with the S443C-S466C disulfide) (respiratory syncytial virus (RSV) | bacteriophage T4) (UniProt P03420)
[3] = biological target: SsA2 (R-1b variant with the A55C-L188C disulfide) (respiratory syncytial virus (RSV) | bacteriophage T4) (UniProt P03420)

“SsA1 (R-1b variant with the V157C-N183C disulfide) (from UniProt P03420 26-105; P03420 137-513)” showed a stoichiometry N [1] of 3.

“SsB1 (R-1b variant with the S443C-S466C disulfide) (from UniProt P03420 26-105; P03420 137-513)” showed a stoichiometry N [2] of 3.

“SsA2 (R-1b variant with the A55C-L188C disulfide) (from UniProt P03420 26-105; P03420 137-513)” was tested, and the stoichiometry N [3] was 3.
